Biological target: T1, CD123 ECD R84T (human, UniProt P26951 19-305)
T1 construct: Recombinant ECD
T1 sequence: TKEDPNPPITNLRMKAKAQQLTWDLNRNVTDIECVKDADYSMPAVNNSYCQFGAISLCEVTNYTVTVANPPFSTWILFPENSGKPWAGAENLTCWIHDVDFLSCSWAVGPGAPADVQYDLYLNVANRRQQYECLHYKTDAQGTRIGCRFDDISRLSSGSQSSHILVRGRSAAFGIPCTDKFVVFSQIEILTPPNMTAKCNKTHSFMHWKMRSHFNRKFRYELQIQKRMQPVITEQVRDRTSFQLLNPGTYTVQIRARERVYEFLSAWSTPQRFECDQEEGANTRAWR
Assay: BLI (Octet), biotinylated CD123 ECD captured on streptavidin tips, hIL3 as analyte, level at 250 s normalised to loading
Protocol: Binding of hIL3 (SinoBiological, PN: 11858-H08H) (analyte) to CD123 ECD wt. and variants (ligands) was performed using Streptavidin capture biosensor (SA) (Sartorius, PN: 18-5019). CD123 ECD wt. and variants were biotinylated using Biotinylation kit Type B (Abeam, PN: ab201796) following manufacturer instructions. Biotinylated CD123 ECD wt. and variants (ligands) were captured on SA tips for 1000 s to achieve a nm shift of 1.5 to 2 nm. Analyte hIL3 was titrated at 7 concentrations from 500 to 7.8 nM. Association to analyte was monitored for 300 s and dissociation for 120 s. Buffer only well was used as reference. No regeneration was performed, and a new set of tips was used for each biotinylated captured ligand. Data were analyzed using the Octet Data Analysis software HT 12.0. Due to the fast on/off nature of the interaction data were analyzed using Steady state analysis. Qualitative representation in FIG. 11 binding level were taken at 250 s association for all concentrations.

- binding result: binds
B1: hIL3 (ligand, human, UniProt P08700 20-152, looked up)
chain: APMTQTTPLKTSWVNCSNMIDEIITHLKQPPLPLLDFNNLNGEDQDILMENNLRRPNLEAFNRAVKSLQNASAIESILKNLLPCLPLATAAPTRHPIHIKDGDWNEFRRKLTFYLKTLENAQAQQTTLSLAIF
notes: also called Interleukin-3
